Test results published in patent US20170137467A1 (CHROMOTEK, published 2017).

How the values were obtained:
[1] = target: T1, recombinant human β-catenin, full-length (human, UniProt P35222 1-781, limits assumed); test: not stated at this place (description)
T1 construct: Purified from E. coli; also called full-length β-catenin
T1 sequence (looked up): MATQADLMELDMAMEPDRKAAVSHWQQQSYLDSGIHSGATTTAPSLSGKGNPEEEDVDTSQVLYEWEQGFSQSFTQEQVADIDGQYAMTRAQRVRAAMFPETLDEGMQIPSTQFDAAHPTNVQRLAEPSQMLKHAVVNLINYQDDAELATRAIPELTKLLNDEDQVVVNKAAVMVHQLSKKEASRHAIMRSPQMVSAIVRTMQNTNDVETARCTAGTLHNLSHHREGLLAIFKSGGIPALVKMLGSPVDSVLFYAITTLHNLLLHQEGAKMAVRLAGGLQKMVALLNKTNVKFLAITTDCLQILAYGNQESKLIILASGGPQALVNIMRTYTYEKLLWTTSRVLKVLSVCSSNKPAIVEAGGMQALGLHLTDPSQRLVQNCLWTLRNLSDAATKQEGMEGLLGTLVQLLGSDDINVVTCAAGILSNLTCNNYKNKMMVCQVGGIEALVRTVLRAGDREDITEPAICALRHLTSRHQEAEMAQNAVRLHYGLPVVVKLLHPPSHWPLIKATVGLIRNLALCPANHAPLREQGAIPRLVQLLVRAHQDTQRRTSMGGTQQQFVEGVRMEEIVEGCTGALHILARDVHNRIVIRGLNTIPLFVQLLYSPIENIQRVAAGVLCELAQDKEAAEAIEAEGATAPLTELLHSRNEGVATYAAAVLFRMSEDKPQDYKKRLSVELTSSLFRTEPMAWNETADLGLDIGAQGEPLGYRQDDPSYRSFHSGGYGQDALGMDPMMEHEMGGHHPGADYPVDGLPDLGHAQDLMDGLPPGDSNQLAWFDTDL
Description: (§1) The dissociation was induced by two injections of regeneration solution of 15 μl each at the identical flow rates.

[2] = target: T2, mCherry-Vimentin (untagged) (UniProt P08670 1-466); test: immunoprecipitation from HEK293T lysate with the BC2 nanotrap, immunoblot with anti-vimentin
T2 construct: Control without the BC2 tag; not shown: mCherry fluorescent protein
T2 sequence (P08670 whole entry): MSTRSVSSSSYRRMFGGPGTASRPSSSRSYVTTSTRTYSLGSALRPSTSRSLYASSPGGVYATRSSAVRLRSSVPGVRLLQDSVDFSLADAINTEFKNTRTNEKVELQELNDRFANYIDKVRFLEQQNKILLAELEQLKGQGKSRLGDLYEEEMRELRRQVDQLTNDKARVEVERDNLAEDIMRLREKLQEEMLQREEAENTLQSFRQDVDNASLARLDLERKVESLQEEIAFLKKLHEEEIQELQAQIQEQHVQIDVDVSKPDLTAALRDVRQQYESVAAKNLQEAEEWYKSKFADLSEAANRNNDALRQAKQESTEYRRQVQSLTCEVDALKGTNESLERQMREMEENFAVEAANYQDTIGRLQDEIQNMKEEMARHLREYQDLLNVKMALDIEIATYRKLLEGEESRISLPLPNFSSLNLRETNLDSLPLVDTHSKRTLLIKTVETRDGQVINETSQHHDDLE
Description: (§2) HEK293T cells transiently expressing eGFP, eGFPBC2T or BC2TeGFP, eGFP-PCNA, eGFP-PCNABC2T, mCherry-Vimentin, mCherry-VimentinBC2T were washed and harvested in phosphate buffered saline (PBS), snap-frozen in liquid nitrogen and stored at −20° C. Cell pellets were homogenized in 200 μl lysis buffer (10 mM Tris/Cl pH 7.5, 150 mM NaCl, 0.5% NP40, 1 μg DNaseI, 2 mM MgCl₂, 2 mM PMSF, 1× protease inhibitor mix M (Serva) by repeated pipetting for 40 min on ice. After a centrifugation step (10 min at 18.000×g) the protein concentration of each lysate was determined using a Pierce BCA Protein Assay Kit (Thermo Fisher Scientific) according to manufacturer's protocol and the protein solutions were adjusted with dilution buffer (10 mM Tris/Cl pH 7.5, 150 mM NaCl, 2 mM PMSF) to a concentration of 1 mg/ml. 2% of the supernatant were added to SDS-containing sample buffer (referred to as input). […] After a centrifugation step (2 min, 2500×g) the precleared supernatant was transferred to a new cup. 2% were added to SDS-containing sample buffer (referred to as non-bound). […] Samples were analyzed by SDS-PAGE followed by immunoblotting. Immunoblots were probed with indicated antibodies.

[3] = target: T1, recombinant human β-catenin, full-length; test: SPR (Biacore 3000), recombinant β-catenin immobilized, five Nb concentrations, 1:1 Langmuir
Description: as §1

[4] = target: T3, BC2T A6K peptide (BC2TA6X library) (human); test: BC2TA6X library pulldown with immobilized Nb, LC-MS of the supernatant
T3 construct: also called lysine at position 6
T3 peptide: Ac-PDRKAKVSHWQQ-NH2
Description: (§3) To investigate the binding specificity of the BC2T and derived mutants peptide libraries for each amino acid position of the sequence […] (SEQ ID NO:4) were synthesized with acetyl and amide groups located at the N-termini or C-termini respectively (Intavis). […] Incubations were performed in 300 μl PBS/0.01% CHAPS for 1 h on a HulaMixer (Life Technologies). Subsequent to a centrifugation step 10 μl supernatant were analyzed in a LC-MS procedure. Peptides were separated using an UltiMate3000 RSLCnano System (Thermo Scientific), composed of a C18 PepMap100μ-Precolumn (300 μm×5 mm; particle size: 5 μm; pore size: 100 Å—Thermo Scientific) and a C18 analytical column (Acclaim Rapid Separation LC (RSLC) Column: 150 mm×5 mm; particle size: 2.2 μm; pore size: 100 Å—Thermo Scientific). A step gradient was applied starting at 8% and ending after 20 min at 30% eluent B (80% acetonitrile, 20% H₂O, 0.1% formic acid). Peptides were analyzed using a FULL-MS-strategy detected by a Q Exactive Plus mass spectrometer (Thermo Scientific). As maximal injection time 100 ms was chosen while setting the AGC target to 3E6. The resolution was set to 70.000. Half-maximal signal areas were referenced to control precipitation approaches using a GFP-specific nanobody immobilized on agarose beads. All experiments were done in triplicates.

[5] = target: T4, BC2T A6R peptide (BC2TA6X library) (human); test: as above
T4 construct: also called arginine at position 6
T4 peptide: Ac-PDRKARVSHWQQ-NH2
Description: as §3

[6] = target: T5, eGFP-PCNA with C-terminal BC2 tag (eGFP-PCNABC2T) (human, UniProt P12004 1-261); test: immunoprecipitation from HEK293T lysate, immunoblot with anti-PCNA
T5 construct: Expressed in HEK293T or HeLa cells; not shown: eGFP
T5 sequence (P12004 other isoform, or with tags, fused parts or gaps limits assumed): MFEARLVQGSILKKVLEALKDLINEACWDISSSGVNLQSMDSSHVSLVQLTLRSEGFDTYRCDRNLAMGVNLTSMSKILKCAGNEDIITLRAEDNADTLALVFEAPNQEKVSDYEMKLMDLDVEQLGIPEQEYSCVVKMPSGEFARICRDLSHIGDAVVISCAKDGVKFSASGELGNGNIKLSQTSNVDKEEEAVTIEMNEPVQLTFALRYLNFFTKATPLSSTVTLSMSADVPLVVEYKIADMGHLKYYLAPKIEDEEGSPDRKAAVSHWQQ
Description: as §2

B1: BC2 nanobody (VHH)
VHH: QVQLVESGGGLVQPGGSLTLSCTASGFTLDHYDIGWFRQAPGKEREGVSCINNSDDDTYYADSVKGRFTIFMDNAKDTVYLQMNSLKPEDTAIYYCAEARGCKRGRYEYDFWGQGTQVTVSS
notes: Alpaca VHH, 122 aa; also called BC2-Nb; BC2 nanotrap (BC2-Nb immobilized on agarose/Sepharose beads); not shown: C-terminal 6xHis-tag added by the pHEN6 vector
- Kd [1]: 3.7 nM
- binding result [2]: no binding
- Kd [3]: ~3.1 nM
- binding result [4]: no binding
- binding result [5]: no binding
- binding result [6]: binds
